In patent US20150344580A1 (MSM PROTEIN TECHNOLOGIES, published 2015):
Residue numbers refer to the chain shown, from its start. One block for each binder: values may come before it.

How the values were obtained:
[1] = target: T1, human CD22 (human, UniProt P20273 20-847); test: cell-based or functional assay
T1 sequence (looked up): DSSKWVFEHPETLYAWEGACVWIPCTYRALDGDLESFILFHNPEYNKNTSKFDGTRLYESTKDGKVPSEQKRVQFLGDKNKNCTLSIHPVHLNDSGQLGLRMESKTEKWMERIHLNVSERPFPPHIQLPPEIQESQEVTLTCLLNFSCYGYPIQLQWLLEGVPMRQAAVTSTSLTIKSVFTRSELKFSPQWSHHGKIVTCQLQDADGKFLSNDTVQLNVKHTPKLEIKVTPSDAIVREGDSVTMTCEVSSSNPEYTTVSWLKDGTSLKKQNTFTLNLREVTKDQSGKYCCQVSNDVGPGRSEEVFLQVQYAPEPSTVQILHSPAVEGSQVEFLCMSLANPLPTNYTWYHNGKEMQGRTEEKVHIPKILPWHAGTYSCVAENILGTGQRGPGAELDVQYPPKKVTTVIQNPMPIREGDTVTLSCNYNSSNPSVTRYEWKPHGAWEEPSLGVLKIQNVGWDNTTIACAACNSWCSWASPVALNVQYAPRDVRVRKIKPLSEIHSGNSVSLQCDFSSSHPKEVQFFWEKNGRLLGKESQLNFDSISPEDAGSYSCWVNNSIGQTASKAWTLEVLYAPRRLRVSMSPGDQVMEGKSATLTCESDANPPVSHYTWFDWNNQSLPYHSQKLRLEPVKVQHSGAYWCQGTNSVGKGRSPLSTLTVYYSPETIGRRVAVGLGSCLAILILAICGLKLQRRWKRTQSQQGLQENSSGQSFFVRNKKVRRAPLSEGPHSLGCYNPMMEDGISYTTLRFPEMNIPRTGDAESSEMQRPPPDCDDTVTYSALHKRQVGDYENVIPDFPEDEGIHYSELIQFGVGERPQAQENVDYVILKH

[2] = target: T2, human chemokine receptor CCR7 (human, UniProt P32248 25-378); test: flow cytometry titration on CCR7 over-expressing cells (direct binding, printed as IC50)
T2 construct: On CHO, BHK, R1610 and Chem-1 transfectants and, natively, on human PBMC and the leukemia lines JVM-13 and CLL-AAT; also called human CCR7; hCCR7
T2 sequence: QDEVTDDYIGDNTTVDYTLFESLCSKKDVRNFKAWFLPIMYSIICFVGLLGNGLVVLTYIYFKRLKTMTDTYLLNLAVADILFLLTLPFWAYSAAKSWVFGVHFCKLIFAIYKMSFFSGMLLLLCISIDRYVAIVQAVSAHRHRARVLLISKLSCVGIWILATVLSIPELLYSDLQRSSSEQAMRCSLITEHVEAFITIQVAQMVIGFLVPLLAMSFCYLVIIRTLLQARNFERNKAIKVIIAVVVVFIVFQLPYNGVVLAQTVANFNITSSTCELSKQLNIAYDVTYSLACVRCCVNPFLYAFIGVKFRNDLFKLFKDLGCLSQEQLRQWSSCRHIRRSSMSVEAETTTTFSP

[3] = target: T2, human chemokine receptor CCR7; test: cell-based or functional assay
[4] = target: T2, human chemokine receptor CCR7; test: IgG1 of Table 16 on human CCR7-expressing cells
[5] = target: T2, human chemokine receptor CCR7; test: flow cytometry titration, CHO-human CCR7 cells, anti-human Fc-PE
Description: The affinity of IgG1 antibodies to human CCR7 was evaluated by measuring mean fluorescence value (MFI) of cells expressing CCR7 in the presence of varying concentration of antibody in question, upon staining of bound to the cells antibodies with a commercial anti-human antibody-PE conjugate. The data of such experiments are depicted in FIGS. 9, 10, and 11. In these experiments binding of some antibodies to parental cells or cells expressing mouse CCR7 was also quantitatively characterized by obtaining EC₅₀ value (a concentration of IgG1 at which half-maximum MFI is achieved) for each curve using the SoftMaxPro5 program.

[6] = target: T2, human chemokine receptor CCR7; test: flow cytometry titration, CHO cells expressing human CCR7

B1: mouse anti-human CD22 monoclonal antibody (antibody, V domains shown)
VH: QVQLQQSGAELVKPGASVKMSCKASGYTFTSYWLHWIKQRPGQGLEWIGYINPRNDYTEYNQKFKDKATLTADKSSSTAYMQLSSLTSEDSAVYYCARRDITTFYWGQGTTLTVSS
VL: DIQLTQSPSSLAVSAGENVTMSCKSSQSVLYSANHKNYLAWYQQKPGQSPKLLIYWASTRESGVPDRFTGSGSGTDFTLTISRVQVEDLAIYYCHQYLSSWTFGGGTKLEIK
- EC50 of cell killing with mouse Fab-ZAP, CLL-AAT cells [1]: 0.06 nM
- EC50 of cell killing with mouse Fab-ZAP, JVM-13 cells [1]: 0.5 nM

B2: MSM R707 in IgG4 format (antibody)
heavy: EVQLLESGGGLVQPGGSLRLSCAASGFTFSNYAIHWVRQAPGKGLEWVSAITPRGGYTYYADSVKGRFTISRDNSKNTLYLQMNSLRAEDTAVYYCARGLTMMYTPGMDYWGQGTLVTVSSASTKGPSVFPLAPCSRSTSESTAALGCLVKDYFPEPVTVSWNSGALTSGVHTFPAVLQSSGLYSLSSVVTVPSSSLGTKTYTCNVDHKPSNTKVDKRVESKYGPPCPSCPAPEFLGGPSVFLFPPKPKDTLMISRTPEVTCVVVDVSQEDPEVQFNWYVDGVEVHNAKTKPREEQFNSTYRVVSVLTVLHQDWLNGKEYKCKVSNKGLPSSIEKTISKAKGQPREPQVYTLPPSQEEMTKNQVSLTCLVKGFYPSDIAVEWESNGQPENNYKTTPPVLDSDGSFFLYSRLTVDKSRWQEGNVFSCSVMHEALHNHYTQKSLSLSPGK
light: not shown
notes: also called IgG4 R707; IgG4 formatted MSM R707
- IC50 [2]: 4.9 to 7.6 nM
- IC50 of inhibition of Ca-flux induced by 18 nM CCL19, Chem-1 CCR7h cells [3]: ~20 nM

B3: R707MSF (MSM-R707 HC CDR3 mutant, IgG1) (antibody, V domains shown)
VH: EVQLLESGGGLVQPGGSLRLSCAASGFTFSNYAIHWVRQAPGKGLEWVSAITPRGGYTYYADSVKGRFTISRDNSKNTLYLQMNSLRAEDTAVYYCARGLTMSYTPGFDYWGQGTLVTVSS
VL: not shown
notes: IgG1
- binding result [4]: binds

B4: R707MRF (MSM-R707 HC CDR3 mutant, IgG1) (antibody, V domains shown)
VH: B3 VH with S103R
VL: not shown
notes: IgG1
- binding result [4]: binds

B5: MSM-R707BL (fully human anti-human CCR7 antibody, IgG1) (antibody, V domains shown)
VH: B3 VH with M102L
VL: not shown
notes: IgG1 format; HC CDR3 derivative of MSM-R707
- EC50 [5]: 2.6 nM

B6: R707MLF (MSM-R707 HC CDR3 mutant, IgG1) (antibody, V domains shown)
VH: B3 VH with S103L
VL: not shown
notes: IgG1
- binding result [4]: binds

B7: R707NMF (MSM-R707 HC CDR3 mutant, IgG1) (antibody, V domains shown)
VH: B3 VH with M102N, S103M
VL: not shown
notes: IgG1
- binding result [4]: binds

B8: R707TMF (MSM-R707 HC CDR3 mutant, IgG1) (antibody, V domains shown)
VH: B3 VH with M102T, S103M
VL: not shown
notes: IgG1
- binding result [4]: binds

B9: R707FMF (MSM-R707 HC CDR3 mutant, IgG1) (antibody, V domains shown)
VH: B3 VH with M102F, S103M
VL: not shown
notes: IgG1
- binding result [4]: binds

B10: R707WMF (MSM-R707 HC CDR3 mutant, IgG1) (antibody, V domains shown)
VH: B3 VH with M102W, S103M
VL: not shown
notes: IgG1
- binding result [4]: binds

B11: R707MAF (MSM-R707 HC CDR3 mutant, IgG1) (antibody, V domains shown)
VH: B3 VH with S103A
VL: not shown
notes: IgG1
- binding result [4]: binds

B13: MSM-R707BI (fully human anti-human CCR7 antibody, IgG1) (antibody, V domains shown)
VH: B3 VH with M102I
VL: not shown
notes: IgG1 format; HC CDR3 derivative of MSM-R707; also called MSM-R7707BI; R707B1
- EC50 [6]: 6.7 nM
- EC50 [5]: 5.5 nM

B15: MSM-R707BR (fully human anti-human CCR7 antibody, IgG1) (antibody, V domains shown)
VH: B3 VH with M102R
VL: not shown
notes: as for B5
- EC50 [5]: 1.9 nM

B24: MSM R735 in IgG4 format (antibody)
heavy: EVQLLESGGGLVQPGGSLRLSCAASGFTFSNYNMHWVRQAPGKGLEWVSGIGPRRGRTYYADSVKGRFTISRDNSKNTLYLQMNSLRAEDTAVYYCARSYAYQYRGLDYWGQGTLVTVSSASTKGPSVFPLAPCSRSTSESTAALGCLVKDYFPEPVTVSWNSGALTSGVHTFPAVLQSSGLYSLSSVVTVPSSSLGTKTYTCNVDHKPSNTKVDKRVESKYGPPCPSCPAPEFLGGPSVFLFPPKPKDTLMISRTPEVTCVVVDVSQEDPEVQFNWYVDGVEVHNAKTKPREEQFNSTYRVVSVLTVLHQDWLNGKEYKCKVSNKGLPSSIEKTISKAKGQPREPQVYTLPPSQEEMTKNQVSLTCLVKGFYPSDIAVEWESNGQPENNYKTTPPVLDSDGSFFLYSRLTVDKSRWQEGNVFSCSVMHEALHNHYTQKSLSLSPGK
light: EIVLTQSPGTLSLSPGERATLSCRASQSVSSSYLAWYQQKPGQAPRLLIYGASSRATGIPDRFSGSGSGTDFTLTISRLEPEDFAVYYCQQGSPVTFGQGTKVEIKRTVAAPSVFIFPPSDEQLKSGTASVVCLLNNFYPREAKVQWKVDNALQSGNSQESVTEQDSKDSTYSLSSTLTLSKADYEKHKVYACEVTHQGLSSPVTKSFNRGEC
notes: also called IgG4 formatted MSM R735
- IC50 [2]: 2.5 to 5.3 nM
- IC50 of inhibition of CCL19-induced Ca-flux in cells expressing human CCR7 [3]: 128 nM

Now from value to binder:

- binding result [4]: binds
B12: R707MGF (MSM-R707 HC CDR3 mutant, IgG1) (antibody, V domains shown)
VH: B3 VH with S103G
VL: not shown
notes: IgG1

- binding result [4]: binds
B14: R707SMF (MSM-R707 HC CDR3 mutant, IgG1) (antibody, V domains shown)
VH: B3 VH with M102S, S103M
VL: not shown
notes: IgG1

- binding result [4]: binds
B16: R707MPF (MSM-R707 HC CDR3 mutant, IgG1) (antibody, V domains shown)
VH: B3 VH with S103P
VL: not shown
notes: IgG1

- binding result [4]: binds
B17: R707RMF (MSM-R707 HC CDR3 mutant, IgG1) (antibody, V domains shown)
VH: B3 VH with M102R, S103M
VL: not shown
notes: IgG1

- binding result [4]: binds
B18: R707LMF (MSM-R707 HC CDR3 mutant, IgG1) (antibody, V domains shown)
VH: B3 VH with M102L, S103M
VL: not shown
notes: IgG1

- binding result [4]: binds
B19: R707MVF (MSM-R707 HC CDR3 mutant, IgG1) (antibody, V domains shown)
VH: B3 VH with S103V
VL: not shown
notes: IgG1

- binding result [4]: binds
B20: R707IMF (MSM-R707 HC CDR3 mutant, IgG1) (antibody, V domains shown)
VH: B3 VH with M102I, S103M
VL: not shown
notes: IgG1

- binding result [4]: binds
B21: R707MTF (MSM-R707 HC CDR3 mutant, IgG1) (antibody, V domains shown)
VH: B3 VH with S103T
VL: not shown
notes: IgG1

- binding result [4]: binds
B22: R707KMF (MSM-R707 HC CDR3 mutant, IgG1) (antibody, V domains shown)
VH: B3 VH with M102K, S103M
VL: not shown
notes: IgG1

- binding result [4]: binds
B23: R707MQF (MSM-R707 HC CDR3 mutant, IgG1) (antibody, V domains shown)
VH: B3 VH with S103Q
VL: not shown
notes: IgG1
